Data from patent US20210252150A1.

Columns and labels:
Experiment in all cases: ELISA
[1] = biological target: HA of A/Texas/50/2012 (H3N2) (influenza A virus (H3N2))
[2] = biological target: HA of A/Solomon Islands/03/2006 (H1N1) (influenza A virus (H1N1))
[3] = biological target: HA of A/Texas/36/1991 (H1N1) (influenza A virus (H1N1))

Measured: EC50 fold over wild-type rFluA-20

B1: rFluA-20 heavy chain mutant Y100aA (antibody, V domains shown)
VH: QVQLQESGPGLVKPSETLSLTCSVSGVSVTSDIYYWTWIRQPPGKGLEWIGYIFYNGDTNYNPSLKSRVTMSIDTSKNEFSLRLTSVTAADTAVYFCARGTEDLGACSSGSCPNHWGQGTLVTVSS
VL: DIQMTQSPSSLSASIGDRVTITCRPSQNIRSFLNWFQHKPGKAPKLLIYAASNLQSGVPSRFSGSGSGTEFTLTIRSLQPEDFATYYCQQSYNTPPTFGQGTKVEIK
> 100 fold: all assays above
